Data: the supplement of paper PMC12042874
± gives the uncertainty stated by the source.

Assay: amyloid nucleation score (Sup35N fusion, yeast selection) (log enrichment); library NNK2; higher = more nucleation; inactive = no reads after selection
Outline: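 After 24 hours of induction with 100 μM copper sulfate, psi-negative yeast expressing peptides of 20 random codons fused to Sup35N were grown for 7 days at 30°C on medium lacking adenine and uracil. Input and output plasmid inserts were sequenced with Illumina, and sequences with under 100 input reads were discarded. Scores for nucleation are the DiMSum log enrichment of output over input reads, centred on the mode score of non-aggregating sequences.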

Substance | amyloid nucleation score
LMSFGDLCIHLGFGSCFCLM | -0.631 ± 0.39
LMSKKGNGIGLEQPLLSSDT | -0.778 ± 1.1
LNDSLTIACSTNTANSWRNL | inactive
LNDWNFLVMVHISIVIRILF | inactive
LNGCGVLRPVR | 5.89 ± 0.067
LNIFI | 2.96 ± 0.062
LNKNYWGL | -0.921 ± 0.39
LNLQSLTSHTVKGL | 0.147 ± 0.54
LNMMFYYLRFRMHFRWMDC | -0.79 ± 0.38
LNQSDLLADFLVLI | 0.474 ± 0.31
LNSRS | -0.436 ± 0.76
LNSSLLFHNLMVHH | inactive
LNYMLSAPYFPYESEWSSKG | -0.59 ± 1.1
LNYNYTQDR | -0.751 ± 1.1
LPGCTTRLHVNLIGALECCK | 0.077 ± 0.35
LPIDVSNVGTFVEWIFFAIR | -1.5 ± 0.54
LPRMGSEWFVCWLCSCVATW | 0.718 ± 0.57
LPTWYVLVPLMDYIYYLFKE | -0.536 ± 1
LQCRLIRVMYVMHCDVWVV | -0.087 ± 0.24
LQRRCLINKNTGTPRLSN | -0.358 ± 1
LQTQFTAVC | 0.27 ± 0.22
LQVRSDSMNGFNW | -0.61 ± 1.1
LRAVWATVIVSVAMSVSCPK | 5.07 ± 0.07
LRAWLSSLAHTKRRCELGTP | 0.575 ± 0.3

Substance | amyloid nucleation score
LRCHDGVKLSKSVCECCMYM | 2.37 ± 0.19
LRCSESCNLMNKYGWRRNQA | 3.65 ± 0.081
LRDCFVEYEGSSSMYYLRQW | -0.105 ± 0.4
LRDTPLMGWYCFRSHLVTVS | 1.3 ± 0.51
LRFCSSSVISGLQFSSRVVE | -0.029 ± 1.1
LRFFHQSL | inactive
LRFPRGLNGNDPGSIAS | -0.085 ± 0.79
LRGLSAPACKYQWQDEMYD | -0.628 ± 0.45
LRGLVMRCAFIVKGLGLCEG | 0.979 ± 0.22
LRGQEKLWGVACSLVLIVTA | 1.39 ± 0.15
LRGVLLSETRCAKEGLPTLS | 0.365 ± 0.36
LRKNSLTCSSKKPEKAVTFC | -1.42 ± 1
LRKVLW | -0.657 ± 0.79
LRMNYIAAVHSCAVLHHFNA | 3.13 ± 0.073
LRPLL | -0.912 ± 0.93
LRRDL | -0.408 ± 0.63
LRRTSVVIGRVRSSRLCGLR | 9.336 ± 0.054
LRVTGNVGLSFGAKGLARPD | 3.33 ± 0.12
LRWRSCGNELDFKLNGLDFE | 0.586 ± 0.74
LRYHKTILYTRFSRNHTYAT | 0.498 ± 0.74
LSAVLSAHIMVCLGYAYLG | inactive
LSAVWLWVNFFQHMTNRC | -1.71 ± 0.76
LSFFDLIMGVRGMLQSVCGL | -0.131 ± 0.56
LSFRGDSR | 0.243 ± 0.26

Substance | amyloid nucleation score
LSGDNCPRV | -0.342 ± 0.49
LSGMIGSSWAFVSLALIRYQ | -0.798 ± 0.64
LSGSPVYCYCRLR | -0.453 ± 0.78
LSGVFNSFCLRGNGREWVAL | -0.034 ± 0.32
LSHLISFRLTTTSNFRFWDH | 3.15 ± 0.093
LSHLLDGGISLKEGYILWMM | -0.252 ± 0.55
LSIMHYIIYRLDFAFSWKGG | -1.05 ± 1.1
LSIRWLTSCYLYGLLGSSGK | 0.256 ± 0.29
LSKYLMQYNTCRLESKS | -0.336 ± 0.16
LSLFVQMMSVGTILLYRMTL | 0.715 ± 0.34
LSLKVKYFQKDTRVGNGEHK | 2.15 ± 0.076
LSPTYRFGTTSSWGINGRDT | 0.716 ± 0.24
LSQARVYLCYFEFSYFVVEP | 1.83 ± 0.12
LSRDVHCSRFSHREGLITRT | 0.767 ± 0.74
LSRKTYWA | 0.894 ± 0.43
LSSLTLSMVA | 0.561 ± 0.62
LSVEFARYTG | 1.25 ± 0.15
LSVFVSGAPQIKLSNMVVKN | -0.348 ± 0.76
LSVMLTYYGYMPNLYIVVRE | -0.713 ± 0.49
LSVRPASNELCAHVVVRFEC | 3.66 ± 0.09
LSWDYLSWTREI | -0.333 ± 0.24
LSWWIHVTVWFPFQVKTGYL | -0.904 ± 0.78
